Experimental data taken from patent US20110212084A1 (AstraZeneca / MedImmune, published 2011).

Tests used:
[1] = molecular target: T1, cynomolgus IgE (recombinant chimaeric D12 variable region / cynomolgus IgE constant region) (cynomolgus monkey (constant region)); experiment: HTRF receptor-ligand competition, scFv titrated; Eu-cryptate cynomolgus IgE binding to human FcεRI-Fc; geomean
T1 construct: also called cyno IgE; cynomolgus IgE (in house HEK-EBNA derived)
Protocol: (§1) Purified scFv were tested in a receptor-ligand binding HTRF® (Homogeneous Time-Resolved Fluorescence) assay format for inhibition of either human IgE (U266-derived [Ikeyama et. al. 1986. Molecular Immunology 23 (2); p159-167]) or cyno IgE (recombinant, see materials and methods) labelled with europium cryptate (CIS bio International 62EUSPEA), binding to human FcεR1-Fc (in house NS0 cell produced). Example scFv potency data is included in Table 5a
as §1, with “produced).” for “produced). Example scFv potency data is included in Table 5a”

[2] = molecular target: human IgEλ (U266 derived) (human, UniProt P01854 1-546); experiment: HTRF receptor-ligand competition, scFv titrated; Eu-cryptate human IgE (U266) binding to human FcεRI-Fc; geomean
Protocol: as §1
as §1, with “produced).” for “produced). Example scFv potency data is included in Table 5a”

Sequence of human IgEλ (U266 derived) (P01854 whole entry): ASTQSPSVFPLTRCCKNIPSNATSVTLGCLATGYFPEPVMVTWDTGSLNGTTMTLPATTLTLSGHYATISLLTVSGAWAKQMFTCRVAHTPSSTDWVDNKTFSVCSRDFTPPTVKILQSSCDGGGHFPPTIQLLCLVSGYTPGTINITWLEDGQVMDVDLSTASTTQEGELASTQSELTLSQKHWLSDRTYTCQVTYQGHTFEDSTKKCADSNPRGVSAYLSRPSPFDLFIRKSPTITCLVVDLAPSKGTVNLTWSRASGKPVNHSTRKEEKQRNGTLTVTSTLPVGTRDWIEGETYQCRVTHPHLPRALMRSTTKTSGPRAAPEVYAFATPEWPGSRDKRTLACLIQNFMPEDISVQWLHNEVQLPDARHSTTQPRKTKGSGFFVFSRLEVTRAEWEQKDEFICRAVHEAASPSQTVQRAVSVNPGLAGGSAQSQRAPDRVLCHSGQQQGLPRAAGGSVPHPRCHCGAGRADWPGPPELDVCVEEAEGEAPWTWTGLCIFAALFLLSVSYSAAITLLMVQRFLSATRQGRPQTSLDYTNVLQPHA
T1 sequence (heavy, as listed by the source limits assumed, chain 1 of 2): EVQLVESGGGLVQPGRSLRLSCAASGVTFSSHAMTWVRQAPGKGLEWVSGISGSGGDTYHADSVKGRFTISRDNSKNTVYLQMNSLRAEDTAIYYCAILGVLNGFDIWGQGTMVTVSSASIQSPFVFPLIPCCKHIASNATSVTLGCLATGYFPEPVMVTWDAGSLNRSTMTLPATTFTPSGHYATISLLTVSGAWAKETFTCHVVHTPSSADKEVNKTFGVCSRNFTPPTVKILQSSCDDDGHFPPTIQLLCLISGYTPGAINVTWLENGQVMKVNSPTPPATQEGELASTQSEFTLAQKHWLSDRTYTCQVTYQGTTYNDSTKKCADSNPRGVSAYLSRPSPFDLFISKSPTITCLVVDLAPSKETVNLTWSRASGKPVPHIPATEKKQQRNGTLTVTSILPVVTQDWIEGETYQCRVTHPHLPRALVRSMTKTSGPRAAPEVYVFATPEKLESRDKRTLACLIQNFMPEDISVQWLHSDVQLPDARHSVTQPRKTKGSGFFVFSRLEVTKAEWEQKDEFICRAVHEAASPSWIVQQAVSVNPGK
T1 sequence (light, as listed by the source limits assumed, chain 2 of 2): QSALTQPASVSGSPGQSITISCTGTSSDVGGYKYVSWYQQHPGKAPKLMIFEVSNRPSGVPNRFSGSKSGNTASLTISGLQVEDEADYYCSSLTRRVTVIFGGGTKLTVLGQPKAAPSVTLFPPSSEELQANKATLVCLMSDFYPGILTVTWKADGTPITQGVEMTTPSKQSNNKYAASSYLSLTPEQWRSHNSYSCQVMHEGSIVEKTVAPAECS

Binder	IC50 [1] [nM]	IC50 [2] [nM]
Antibody 8 (scFv) (scFv, V domains shown, purified scFv) VH: EVQLLESGGGLVQPGGSLRLSCAAPGFTFSSYAMSWVRQAPGKGLEWVSAISGGSGGRTYYADSVKGRFTISRDNSKNTLYLQMNSLRAEDTAVYYCARHIAVAGTRGFDYWGRGTLVTVSS VL: SYVLTQPPSVSVSPGQTASITCSGDKLGDTYASWYRQRSGQSPVLVIYQDDKRPSGIPERFSGSNSGNTATLTISGTHTMDEADYYCLAWDTRTSGAVFGGGTKLTVL	438	8
Antibody 29 (scFv) (scFv, V domains shown, purified scFv) VH: EVQLLESGGGLVQPGGSLRLSCAASGFTFSSYAMSWVRQAPGKGLEWVSAISGSGGRTYYADSVKGRFTISRDNSKNTLYLQMNSLRAEDTAVYYCARLTFPAITRGFDYWGRGTLVTVSS VL: SYVLTQPPSVSVSPGQTASITCSGDKLGDTYASWYRQRSGQSPVLVIYQDDKRPSGIPERFSGSNSGNTATLTISGTHTMDEADYYCLAWDTRTSGAVFGGGTKLTVL		6
Antibody 20 (scFv) (scFv, V domains shown, purified scFv) VH: EVQLLESGGGLVQPGGSLRLSCAASGFTFSSYAMSWVRQAPGKGLEWVSAISGSGGRTYYADSVKGRFTISRDNSKNTLYLQMNSLRAEDTAVYYCARSTYFASTRGFDYWGRGTLVTVSS VL: SYVLTQPPSVSVSPGQTASITCSGDKLGDKYASWYRQRSGQSPVLVIYQDDKRPSGIPERFSGSNSGNTATLTISGTHTMDEADYYCLAWDTRTSGAVFGGGTKLTVL		5
Antibody 30 (scFv) (scFv, V domains shown, purified scFv) VH: EVQLLESGGGLVQPGGSLRLSCAASGFTFSSYAMSWVRQAPGKGLEWVSAISGSGGRTYYADSVKGRFTISRDNSKNTLYLQMNSLRAEDTAVYYCARLSYPAITRGFDYWGRGTLVTVSS VL: SYVLTQPPSVSVSPGQTASITCSGDKLGDTYASWYRQRSGQSPVLVIYQDDKRPSGIPERFSGSNSGNTATLTISGTHTMDEADYYCLAWDTRTSGAVFGGGTKLTVL		4
Antibody 31 (scFv) (scFv, V domains shown, purified scFv) VH: EVQLLESGGGLVQPGGSLRLSCAASGFTFSSYAMSWVRQAPGKGLEWVSAISGSGGRTYYADSVKGRFTISRDNSKNTLYLQMNSLRAEDTAVYYCARLSYPAITRGFDYWGRGTLVTVSS VL: SYVLTQPPSVSVSPGQTASITCSGDKLGDKYASWYRQRSGQSPVLVIYQDDKRPSGIPERFSGSNSGNTATLTISGTHTMDEADYYCLAWDTRTSGAVFGGGTKLTVL		9
Antibody 14 (scFv) (scFv, V domains shown, purified scFv) VH: EVQLLESGGGLVQPGGSLRLSCAAPGFTFSSYPMSWVRQAPGKGLEWVSAISGSGGSTYYADSVKGRFTISRDNSKNTLYLQMNSLRAEDTAVYYCARHIAVAGTRGFDYWGRGTLVTVSS VL: SFVLSQPPSVSVSPGQTASITCSGDKLGDTYASWYRQRSGQSPVLVIYQDDKRPSGIPERFSGSNSGNTATLTISGTHTMDEADYYCLAWDTRTSGAVFGGGTKLTVL		7
Antibody 28 (scFv) (scFv, V domains shown, purified scFv) VH: EVQLLESGGGLVQPGGSLRLSCAASGFTFSSYAMSWVRQAPGKGLEWVSAISGSGGRTYYADSVKGRFTISRDNSKNTLYLQMNSLRAEDTAVYYCARLWFPAITRGFDYWGRGTLVTVSS VL: SYVLTQPPSVSVSPGQTASITCSGDKLGDTYASWYRQRSGQSPVLVIYQDDKRPSGIPERFSGSNSGNTATLTISGTHTMDEADYYCLAWDTRTSGAVFGGGTKLTVL		4
Antibody 21 (scFv) (scFv, V domains shown, purified scFv) VH: EVQLLESGGGLVQPGGSLRLSCAASGFTFSSYAMSWVRQAPGKGLEWVSAISGSGGRTYYADSVKGRFTISRDNSKNTLYLQMNSLRAEDTAVYYCARLTFPAITRGFDYWGRGTLVTVSS VL: SYVLTQPPSVSVSPGQTASITCSGDKLGDKYASWYRQRSGQSPVLVIYQDDKRPSGIPERFSGSNSGNTATLTISGTHTMDEADYYCLAWDTRTSGAVFGGGTKLTVL		4
Antibody 13 (scFv) (scFv, V domains shown, purified scFv) VH: EVQLLESGGGLVQPGGSLRLSCAASGFTFSSYAMSWVRQAPGKGLEWVSAISGSGGRTYYADSVKGRFAVSRDNSKNTLYLQMNSLRAEDTAVYYCARHIAVAGTRGFDYWGRGTLVTVSS VL: SYVLTQPPSVSVSPGQTASITCSGDKLGDTYASWYRQRSGQSPVLVIYQDDRRPSGIPERFSGSNSGNTATLTISGTHTMDEADYYCLAWDTRTSGAVFGGGTKLTVL		9
Antibody 23 (scFv) (scFv, V domains shown, purified scFv) VH: EVQLLESGGGLVQPGGSLRLSCAASEFTFGSYAMSWVRQAPGKGLEWVSAISGGSGGRTYYADSVKGRFTISRDNSKNTLYLQMNSLRAEDTAVYYCARHIAVAGTRGFDYWGRGTLVTVSS VL: SYVLTQPPSVSVSPGQTASITCSGDKLGDTYASWYRQRSGQSPVLVIYQDDKRPSGIPERFSGSNSGNAATLTISGTHTMDEADYYCLAWDTRTSGAVFGGGTKLTVL	331	7
Antibody 16 (scFv) (scFv, V domains shown, purified scFv) VH: EVQLLESGGGLVQPGGSLRLSCAAPGFTFSSYAMSWVRQAPGKGLEWVSAISGGSGGRTYYADSVKGRFTISRDNSKNTLYLQMNSLRAEDTAVYYCARHIAVAGTRGFDYWGRGTLVTVSS VL: SYVLTQPPSVSVSPGQTASITCSGDKLGDTYASWYRQRSGQSPVLVIYQDDKRPSGIPERFSGSNSGNTATLTISGTHTMDEADYYCLAWDTRTSGAVFGGGTELTVL	280	10
Antibody 11 (scFv) (scFv, V domains shown, purified scFv) VH: EVQLLESGGGLVQPGGSLRLSCAASGFTFSSYAMSWVRQAPGKGLEWVSAISGSGGRTYYADSVKGRFTISRDNSKNTLYLQMNSPRAEDTAVYYCARHIAVAGTRGFDYWGRGTLVAVSS VL: SYVLTQPPSVSVSPGQTASIACSGDKLGDTYASWYRQRSGQSPVLVIYQDDKRPSGIPERFSGSNSGNTATLTISGTHTMDEADYYCLAWDTRTSGAVFGGGTKLTVL		7
Antibody 17 (scFv) (scFv, V domains shown, purified scFv) VH: EVQLLESGGGLVQPGGSLRLSCAAPGFTFSSYAMSWVRQAPGKGLEWVSAISGGSGGRTYYADSVKGRFTISRDNSKNTLYLQMNSLRAEDTAVYYCARHIAVAGTRGFDYWGRGTLVTVSS VL: SYVLTQPPSVSVSPGQTASITCSGDKLGDTYASWYRQRSGQSPVLVIYQDDKRPSGIPERFSGSNSGDTATLTISGTHTMDEADYYCLAWDTRTSGAVFGGGTKLTVL	264	7
Antibody 18 (scFv) (scFv, V domains shown, purified scFv) VH: EVQLLESGGGLVQPGGSLRLSCAASGFTFSSYAVSWVRQAPGKGLEWVSAISGGSGGRTYYADSVKGRFTISRDNSKNTLYLQMNSLRAEDTAVYYCARHIAVAGTRGFDYWGRGTLVTVSS VL: SYVLTQPPSVSVSPGQTASITCSGDKLGDTYASWYRQRSGQSPVLVIYQDDKRPSGIPERFSGSNSGDTATLTISGTRTMDEADYYCLAWDTRTSGAVFGGGTKLTVL	129	6
Antibody 25 (scFv) (scFv, V domains shown, purified scFv) VH: EVQLLESGGGLVQPGGSLRLSCAAPGFTFSSYAMSWVRQAPGKGLEWVSAISGGSGGRTYYADSVKGRFTISRDNSKNTLYLQMNSLRAEDTAVYYCARHIAVAGTRGFDYWGRGTLVTISS VL: SFVLTQPPSVSVSPGQTASITCSGDKLGDTYASWYRQRSGQSPVLVIYQDDKRPSGIPERFSGSNSGNTATLTISGTHTMDEADYYCLAWDTRTSGAVFGGGTKLTVL	188	6
Antibody 22 (scFv) (scFv, V domains shown, purified scFv) VH: EVQLLESGGGLVQPGGSLRLSCAASGFTFSSYAMSWVRQAPGKGLEWVSAISGSGGRTYYADSAKGRFTISRDNSKNTLYLQMNGLRAEDTAVYYCARHIAVAGTRGFDYWGRGTLVTVSS VL: SYVLTQPPSVSVSPGQTASITCSGDKLGDTYTSWYRQRSGQSPVLVIYQDDKRPSGVPERFSGSNSGNTATLTISGTHTMDEADYYCLAWDTRTSGAVFGGGTKLTVL		7
Antibody 24 (scFv) (scFv, V domains shown, purified scFv) VH: EVQLLESGGGLVQPGGSLRLSCAAPGFTFSSYAMSWVRQAPGKGLEWVSAISGGSGGRTYYADSVKGRFTISRDNSKNTLYLQMNSLRAEDTAVYYCARHIAVAGTRGFDYWGRGTLVTVPS VL: SFVLTQPPSVSVSPGQTASITCSGDKLGDTYASWYRQRSGQSPVLVIYQDDKRPSGIPERFSGSNSGNTATLTISGTHTMDEADYYCLAWDTRTSGAVFGGGTKLTVL	196	4
Antibody 6 (scFv) (scFv, V domains shown, purified scFv) VH: EVQLLESGGGLVQPGGSLRLSCAASGFTFSSYAMSWVRQAPGKGLEWVSAISGSGGRTYYADSVKGRFTISKDNSKNTLYLQMNSLRAEDTAVYYCARHIAVAGTRGFDYWGRGALVTVSS VL: SYVLTQPPSVSVSPGQTASITCSGDKLGDTYASWYRQRSGQSPVLVIYQDDKRPSGIPERFSGSNSGNTATLTISGTHTMDEADYYCLAWDTRTSGAVFGGGTKLTVL		8
Antibody 19 (scFv) (scFv, V domains shown, purified scFv) VH: EVQLLESGGGLVQPGGSLRLSCAASGFTFSSYAMSWVRQAPGKGLEWVSAVSGGSGGRTYYADSVKGRFTISRDNSKNTLYLQMNSLRAEDTAVYYCARHIAVAGTRGFDYWGRGTLVTVSS VL: SFVLTQPPSVSVSPGQTASITCSGDKLGDTYASWYRQRSGQSPVLVIYQDDKRPSGIPERFSGSNSGNTATLTISRTHTMDEADYYCLAWDTRTSGAVFGGGTKLTVL	197	9
